Test results published in US20030092624A1 (YISSUM RESEARCH DEVELOPMENT COMPANY OF THE HEBREW …, published 2003).

T1: Citrate Synthase (CS), Roche Diagnostics (UniProt P00889 28-464)
T1 sequence (looked up): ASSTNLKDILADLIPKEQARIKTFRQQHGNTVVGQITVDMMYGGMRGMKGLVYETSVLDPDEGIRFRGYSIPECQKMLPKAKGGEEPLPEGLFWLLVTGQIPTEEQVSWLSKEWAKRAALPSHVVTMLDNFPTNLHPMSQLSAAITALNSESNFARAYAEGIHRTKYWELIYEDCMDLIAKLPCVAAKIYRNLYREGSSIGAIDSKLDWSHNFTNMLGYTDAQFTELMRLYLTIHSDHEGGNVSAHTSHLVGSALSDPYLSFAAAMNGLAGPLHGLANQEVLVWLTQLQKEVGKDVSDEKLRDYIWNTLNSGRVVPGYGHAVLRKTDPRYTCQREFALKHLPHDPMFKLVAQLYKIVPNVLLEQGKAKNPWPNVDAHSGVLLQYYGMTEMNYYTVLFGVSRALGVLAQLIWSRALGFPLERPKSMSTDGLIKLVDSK

T2: Horseradish Peroxidase (HRP), Sigma (horseradish, UniProt P00433 31-338)
T2 sequence (looked up): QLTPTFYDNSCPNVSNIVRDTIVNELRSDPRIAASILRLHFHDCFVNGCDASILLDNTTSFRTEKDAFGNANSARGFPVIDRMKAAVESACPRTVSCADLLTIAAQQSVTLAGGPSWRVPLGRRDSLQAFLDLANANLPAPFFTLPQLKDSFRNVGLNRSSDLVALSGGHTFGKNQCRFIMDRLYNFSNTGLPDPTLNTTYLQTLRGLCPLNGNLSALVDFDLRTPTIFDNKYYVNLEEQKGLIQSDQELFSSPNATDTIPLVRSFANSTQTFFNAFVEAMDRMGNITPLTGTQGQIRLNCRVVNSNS

B1: native SP1 protein purified from aspen plants (116 kDa oligomer / 12.4 kDa monomer) (other)
chain: MATRTPKLVKHTLLTRFKDEITREQIDNYINDYTNLLDLIPSMKSFNWGTDLGMESAELNRGYTHAFESTFESKSGLQEYLDSAALAAFAEGFLPTLSQRLVIDYFLY
notes: Homo-oligomer; On Western blots the protein was separated by SDS-PAGE first; also called purified SP1; plant SP1 protein

Columns and labels:
[1] = molecular target: T1, Citrate Synthase (CS), Roche Diagnostics; assay: cell-based or functional assay
[2] = molecular target: the molecule itself; assay: SDS-tricine PAGE; self-association of SP1 monomers
[3] = molecular target: T2, Horseradish Peroxidase (HRP), Sigma; assay: cell-based or functional assay
[4] = molecular target: superoxide dismutase (SOD), cosmetic grade ('dismutin', Pentapharm Ltd.); assay: cell-based or functional assay
[5] = molecular target: alpha-amylase (Sigma, A 6380); assay: cell-based or functional assay
[6] = molecular target: Horseradish Peroxidase (HRP), Sigma (horseradish) (UniProt P00433); assay: cell-based or functional assay

Molecule	remaining CS enzymatic activity at 43° C. after 40 minutes, CS:CBD-SP1 monomeric molar ratio of 1:20 [1] [%]	remaining CS enzymatic activity at 43° C. after 40 minutes, CS:CBD-SP1 ratio of 1:5 [1] [%]	binding result [2]	protection of CS activity against heat inactivation at 43° C., CS:SP1 ratio of 1:5, 40 minutes [1] [%]	remaining CS enzymatic activity at 43° C., CS:SP1 ratio of 1:50, 15 minutes [1] [%]	remaining CS enzymatic activity at 43° C., CS:SP1 ratio of 1:50, 40 minutes [1] [%]	protection of HRP activity at 55° C. compared with BSA at 1:300 [3] [fold]	protection of HRP activity at 55° C., HRP:SP1 molar ratio of 1:300, 60 minutes [3] [%]	remaining HRP activity at 55° C., HRP:SP1 molar ratio of 1:300, 2 hours [3] [%]	SOD activity compared to SP1 untreated SOD [4] [%]	alpha-amylase activity after 2 hours in 2 M CaCl2 [5] [%]	increase in alpha-amylase activity 2 hours after SP1 addition [5] [%]	remaining alpha-amylase activity after one-week incubation at room temperature [5] [%]	HRP activity rescued after room temperature inactivation [6] [%]
recombinant CBD-SP1 fusion protein (32.4 kDa monomer) expressed in E. coli from pET-CBD-180-SP1	73	33	–	–	–	–	–	–	–	–	–	–	–	–
B1	–	–	binds	22	~100	≥ 93	~3	> 60	53	60	50	60	> 40	10
